T1: CCR7 expressed on CHO-K1 cells (UniProt P32248 25-378)
T1 construct: chemokine receptor CCR7, recombinant, on CHO-K1 cells; source: CHO-K1 cells expressing CCR7 only or co-expressing CXCR4 and CCR7
T1 sequence (looked up): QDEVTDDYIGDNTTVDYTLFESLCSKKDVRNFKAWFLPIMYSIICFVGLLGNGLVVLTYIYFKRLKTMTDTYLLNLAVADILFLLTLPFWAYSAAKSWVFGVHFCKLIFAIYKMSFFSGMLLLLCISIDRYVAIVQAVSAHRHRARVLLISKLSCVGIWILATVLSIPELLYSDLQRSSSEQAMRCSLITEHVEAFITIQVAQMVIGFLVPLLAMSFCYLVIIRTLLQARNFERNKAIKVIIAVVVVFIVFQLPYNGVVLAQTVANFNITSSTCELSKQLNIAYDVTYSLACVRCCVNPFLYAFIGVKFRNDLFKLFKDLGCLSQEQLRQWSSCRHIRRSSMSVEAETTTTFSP


What was measured:
[1] = biological target: T1, CCR7 expressed on CHO-K1 cells; test: radioligand binding; competition on CHO-K1 cells expressing CCR7 only; tracer 0.1 nM 125I-CCL19, increasing concentrations of unlabelled competitor; non-specific binding defined with 300 nM competitor; details: one partner purified
[2] = biological target: T1, CCR7 expressed on CHO-K1 cells; test: radioligand binding; competition on CHO-K1 cells co-expressing CXCR4 and CCR7; tracer 0.1 nM 125I-CCL19, increasing concentrations of unlabelled competitor; non-specific binding defined with 300 nM competitor; details: one partner purified

Row | Binder | IC50 [1] | IC50 [2]
1 | CCL19 (ligand, UniProt Q99731 22-98, looked up, also called unlabeled CCL19) GTNDAEDCCLSVTQKPIPGYIVRNFHYLLIKDGCRVPAVVFTTLRGRQLCAPPDQPWVERIIQRLQRTSAKMKRRSS | 1.84 nM | 1.7 nM
2 | CCL21 (ligand, UniProt O00585 24-134, looked up) SDGGAQDCCLKYSQRKIPAKVVRSYRKQEPSLGCSIPAILFLPRKRSQAELCADPKELWVQQLMQHLDKTPSPQKPAQGCRKDRGASKTGKKGKGSKGCKRTERSQTPKGP | 4.06 nM | 4.2 nM
